Experimental data: publication PMC3510444 (Molecular Cell, 2012)
Where no end group is shown, it is not given here.

Target: T1, LC3A, purified, for fluorescence anisotropy (human, UniProt Q9H492 1-121)
T1 construct: LC3A, human ATG8 ortholog; Construct limits and whether the tag was removed may stand in the Supplemental Experimental Procedures; source: E. coli (pETM30 vectors for biochemical experiments), purified
Experiment: fluorescence polarisation; fluorescence anisotropy, equilibrium; purified ATG8 orthologs serially diluted and mixed with equal volumes of 100 nM FITC-labeled NDP52 peptides; PheraStar plate reader
Details: both partners purified

B1: FITC-labeled NDP52 CLIR peptide (aa 128-141), wild type (peptide)
peptide: ENEEDILVVTTQGE
modifications: also: FITC label (end not given here)
notes: NDP52, human, CLIR region, 14-mer; also called CLIR^WT
Kd: 15.1 µM

B2: FITC-labeled NDP52 CLIR peptide (aa 128-141), I133W (peptide)
peptide: ENEEDWLVVTTQGE
modifications: also: FITC label (end not given here)
notes: NDP52, human, CLIR region, 14-mer, Ile133 replaced with Trp; also called CLIR^I133W
Kd: 0.29 µM
